Measured values taken from patent publication US20260176319A1 (KALLYOPE, published 2026).
Starred links: 1 amine or outer side, 2 acyl side, 3 side chain; linkers in the order of their positions; H or OH if unused. Non-standard residues stand in square brackets, D forms with d. *: point of attachment. Trp(7-F) = N[C@@H](Cc1c[nH]c2c(F)cccc12)C(=O)O; Trp(7-Me) = Cc1cccc2c(C[C@H](N)C(=O)O)c[nH]c12; d(γGlu) = O=C(O)[C@@H](CCC(=O)[*:2])N[*:1]; C18 diacid = O=C(O)CCCCCCCCCCCCCCCCC(=O)*; γGlu = O=C(O)[C@H](CCC(=O)[*:2])N[*:1]; 2Nal = N[C@@H](Cc1ccc2ccccc2c1)C(=O)O; Palmitoyl = CCCCCCCCCCCCCCCC(=O)*; 3Pal = N[C@@H](Cc1cccnc1)C(=O)O; 4Pal = N[C@@H](Cc1ccncc1)C(=O)O; Nle = CCCC[C@H](N)C(=O)O; AEEA = NCCOCCOCC(=O)O; Sar = CNCC(=O)O

B1: Peptide 91 (peptide)
peptide: Palmitoyl-[γGlu][AEEA][AEEA][AEEA][AEEA]GN[3Pal][Trp(7-Me)]AV[dA]HL[Nle]-NH2
SMILES: CCCCCCCCCCCCCCCC(=O)N[C@@H](CCC(=O)NCCOCCOCC(=O)NCCOCCOCC(=O)NCCOCCOCC(=O)NCCOCCOCC(=O)NCC(=O)N[C@@H](CC(N)=O)C(=O)N[C@@H](Cc1cccnc1)C(=O)N[C@@H](Cc1c[nH]c2c(C)cccc12)C(=O)N[C@@H](C)C(=O)N[C@H](C(=O)N[C@H](C)C(=O)N[C@@H](Cc1c[nH]cn1)C(=O)N[C@@H](CC(C)C)C(=O)N[C@@H](CCCC)C(N)=O)C(C)C)C(=O)O
B2: Peptide 7 (peptide)
peptide: Palmitoyl-[d(γGlu)][AEEA][AEEA]GNHWAV[dA]HL[Nle]-NH2
SMILES: CCCCCCCCCCCCCCCC(=O)N[C@H](CCC(=O)NCCOCCOCC(=O)NCCOCCOCC(=O)NCC(=O)N[C@@H](CC(N)=O)C(=O)N[C@@H](Cc1c[nH]cn1)C(=O)N[C@@H](Cc1c[nH]c2ccccc12)C(=O)N[C@@H](C)C(=O)N[C@H](C(=O)N[C@H](C)C(=O)N[C@@H](Cc1c[nH]cn1)C(=O)N[C@@H](CC(C)C)C(=O)N[C@@H](CCCC)C(N)=O)C(C)C)C(=O)O
B3: Peptide 101 (peptide)
peptide: {C18 diacid}-[γGlu][AEEA][AEEA][AEEA][AEEA]GNH[Trp(7-F)]AV[dA]HL[Nle][Sar]-NH2
SMILES: CCCC[C@H](NC(=O)[C@H](CC(C)C)NC(=O)[C@H](Cc1c[nH]cn1)NC(=O)[C@@H](C)NC(=O)[C@@H](NC(=O)[C@H](C)NC(=O)[C@H](Cc1c[nH]c2c(F)cccc12)NC(=O)[C@H](Cc1c[nH]cn1)NC(=O)[C@H](CC(N)=O)NC(=O)CNC(=O)COCCOCCNC(=O)COCCOCCNC(=O)COCCOCCNC(=O)COCCOCCNC(=O)CC[C@H](NC(=O)CCCCCCCCCCCCCCCCC(=O)O)C(=O)O)C(C)C)C(=O)N(C)CC(N)=O
B4: Peptide 93 (peptide)
peptide: Palmitoyl-[γGlu][AEEA][AEEA]GNH[2Nal]AVAHL[Nle]-NH2
SMILES: CCCCCCCCCCCCCCCC(=O)N[C@@H](CCC(=O)NCCOCCOCC(=O)NCCOCCOCC(=O)NCC(=O)N[C@@H](CC(N)=O)C(=O)N[C@@H](Cc1c[nH]cn1)C(=O)N[C@@H](Cc1ccc2ccccc2c1)C(=O)N[C@@H](C)C(=O)N[C@H](C(=O)N[C@@H](C)C(=O)N[C@@H](Cc1c[nH]cn1)C(=O)N[C@@H](CC(C)C)C(=O)N[C@@H](CCCC)C(N)=O)C(C)C)C(=O)O
B5: Peptide 94 (peptide)
peptide: Palmitoyl-[γGlu][AEEA][AEEA]GN[4Pal]WAV[dA]HL[Nle]-NH2
SMILES: CCCCCCCCCCCCCCCC(=O)N[C@@H](CCC(=O)NCCOCCOCC(=O)NCCOCCOCC(=O)NCC(=O)N[C@@H](CC(N)=O)C(=O)N[C@@H](Cc1ccncc1)C(=O)N[C@@H](Cc1c[nH]c2ccccc12)C(=O)N[C@@H](C)C(=O)N[C@H](C(=O)N[C@H](C)C(=O)N[C@@H](Cc1c[nH]cn1)C(=O)N[C@@H](CC(C)C)C(=O)N[C@@H](CCCC)C(N)=O)C(C)C)C(=O)O
B6: Peptide 95 (peptide)
peptide: {C18 diacid}-[γGlu][AEEA][AEEA][AEEA][AEEA]GN[3Pal][Trp(7-Me)]AV[dA]HL[Nle]-NH2
SMILES: CCCC[C@H](NC(=O)[C@H](CC(C)C)NC(=O)[C@H](Cc1c[nH]cn1)NC(=O)[C@@H](C)NC(=O)[C@@H](NC(=O)[C@H](C)NC(=O)[C@H](Cc1c[nH]c2c(C)cccc12)NC(=O)[C@H](Cc1cccnc1)NC(=O)[C@H](CC(N)=O)NC(=O)CNC(=O)COCCOCCNC(=O)COCCOCCNC(=O)COCCOCCNC(=O)COCCOCCNC(=O)CC[C@H](NC(=O)CCCCCCCCCCCCCCCCC(=O)O)C(=O)O)C(C)C)C(N)=O
B7: Peptide 97 (peptide)
peptide: {C18 diacid}-[γGlu][AEEA][AEEA]GNHWAV[dA]HL[Nle]-NH2
SMILES: CCCC[C@H](NC(=O)[C@H](CC(C)C)NC(=O)[C@H](Cc1c[nH]cn1)NC(=O)[C@@H](C)NC(=O)[C@@H](NC(=O)[C@H](C)NC(=O)[C@H](Cc1c[nH]c2ccccc12)NC(=O)[C@H](Cc1c[nH]cn1)NC(=O)[C@H](CC(N)=O)NC(=O)CNC(=O)COCCOCCNC(=O)COCCOCCNC(=O)CC[C@H](NC(=O)CCCCCCCCCCCCCCCCC(=O)O)C(=O)O)C(C)C)C(N)=O
B8: Peptide 98 (peptide)
peptide: {C18 diacid}-[γGlu][AEEA][AEEA][AEEA][AEEA]GNHWAV[dA]HL[Nle]-NH2
SMILES: CCCC[C@H](NC(=O)[C@H](CC(C)C)NC(=O)[C@H](Cc1c[nH]cn1)NC(=O)[C@@H](C)NC(=O)[C@@H](NC(=O)[C@H](C)NC(=O)[C@H](Cc1c[nH]c2ccccc12)NC(=O)[C@H](Cc1c[nH]cn1)NC(=O)[C@H](CC(N)=O)NC(=O)CNC(=O)COCCOCCNC(=O)COCCOCCNC(=O)COCCOCCNC(=O)COCCOCCNC(=O)CC[C@H](NC(=O)CCCCCCCCCCCCCCCCC(=O)O)C(=O)O)C(C)C)C(N)=O
B9: Peptide 96 (peptide)
peptide: Palmitoyl-[γGlu][AEEA][AEEA]GNHWAV[dA]HL[Nle]-NH2
SMILES: CCCCCCCCCCCCCCCC(=O)N[C@@H](CCC(=O)NCCOCCOCC(=O)NCCOCCOCC(=O)NCC(=O)N[C@@H](CC(N)=O)C(=O)N[C@@H](Cc1c[nH]cn1)C(=O)N[C@@H](Cc1c[nH]c2ccccc12)C(=O)N[C@@H](C)C(=O)N[C@H](C(=O)N[C@H](C)C(=O)N[C@@H](Cc1c[nH]cn1)C(=O)N[C@@H](CC(C)C)C(=O)N[C@@H](CCCC)C(N)=O)C(C)C)C(=O)O
B10: Peptide 100 (peptide)
peptide: {C18 diacid}-[γGlu][AEEA][AEEA]RNHWAV[dA]HL[Nle][Sar]-NH2
SMILES: CCCC[C@H](NC(=O)[C@H](CC(C)C)NC(=O)[C@H](Cc1c[nH]cn1)NC(=O)[C@@H](C)NC(=O)[C@@H](NC(=O)[C@H](C)NC(=O)[C@H](Cc1c[nH]c2ccccc12)NC(=O)[C@H](Cc1c[nH]cn1)NC(=O)[C@H](CC(N)=O)NC(=O)[C@H](CCCNC(=N)N)NC(=O)COCCOCCNC(=O)COCCOCCNC(=O)CC[C@H](NC(=O)CCCCCCCCCCCCCCCCC(=O)O)C(=O)O)C(C)C)C(=O)N(C)CC(N)=O
B11: Peptide 99 (peptide)
peptide: {C18 diacid}-[γGlu][AEEA][AEEA]GNH[2Nal]AV[dA]HL[Nle][Sar]-NH2
SMILES: CCCC[C@H](NC(=O)[C@H](CC(C)C)NC(=O)[C@H](Cc1c[nH]cn1)NC(=O)[C@@H](C)NC(=O)[C@@H](NC(=O)[C@H](C)NC(=O)[C@H](Cc1ccc2ccccc2c1)NC(=O)[C@H](Cc1c[nH]cn1)NC(=O)[C@H](CC(N)=O)NC(=O)CNC(=O)COCCOCCNC(=O)COCCOCCNC(=O)CC[C@H](NC(=O)CCCCCCCCCCCCCCCCC(=O)O)C(=O)O)C(C)C)C(=O)N(C)CC(N)=O

Molecular target: human GRP receptor (human, UniProt P30550 1-384)
Sequence (P30550 whole entry): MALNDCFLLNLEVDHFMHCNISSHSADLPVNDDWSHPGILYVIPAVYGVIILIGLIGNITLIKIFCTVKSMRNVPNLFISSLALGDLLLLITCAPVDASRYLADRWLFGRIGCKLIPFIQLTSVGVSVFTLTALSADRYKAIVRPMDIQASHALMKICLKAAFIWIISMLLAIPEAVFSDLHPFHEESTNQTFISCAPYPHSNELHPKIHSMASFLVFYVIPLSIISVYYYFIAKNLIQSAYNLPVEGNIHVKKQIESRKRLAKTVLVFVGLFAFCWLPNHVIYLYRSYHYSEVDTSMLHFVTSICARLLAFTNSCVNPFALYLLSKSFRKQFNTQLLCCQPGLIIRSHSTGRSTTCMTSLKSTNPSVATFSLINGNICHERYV
Assay: cell-based or functional assay

Going from B1 to B2, the “hIP1 GRPR EC50” value falls from 3.72 nM to 0.6 nM (6.2-fold).

First: B3
Second: B4
The “hIP1 GRPR EC50” value of the first is 51-fold higher: 352 nM for the first, 6.95 nM for the second.

Compared with B5, B6 is 76-fold higher in “hIP1 GRPR EC50” value: 1.45 nM for the first, 110 nM for the second.

B7 and B8 are within 1.5-fold of each other in “hIP1 GRPR EC50” value: 8.91 nM for the first, 11.2 nM for the second.

Compared with B9, B10 is 63-fold higher in “hIP1 GRPR EC50” value: 1.58 nM for the first, 99.9 nM for the second.

In the case of B11, the “hIP1 GRPR EC50” value is reported as over 10000 nM.
